US20200345839A1 (DESENTUM, published 2020)

Target: the molecule itself
Test: native ESI FT-ICR mass spectrometry, 40 uM in 10 mM ammonium acetate (self-association)
Protocol: The mass spectrometric experiments were performed with a 12T solariX XR mass spectrometer (Bruker Daltonics, Billerica, Mass., USA), equipped with an Apollo II ion funnel electrospray source. Before a mass spectrometric analysis, the protein sample was exchanged into an ESI-MS compatible ammonium acetate buffer (10 mM, pH 6.9) by using disposable PD-10 desalting columns (GE Healthcare). For mass spectrometric measurements in denaturing solution conditions, protein sample was diluted to 0.2 μM with acetonitrile/water/acetic acid solution. The protein solution was directly infused into the ion source by a syringe pump with a flow rate of […]. The temperature of the drying gas was 200° C. and the pressure of the nebulizing gas was 1.0 bar. Mass spectra were acquired in the positive ion mode over the m/z range of 800-3000 with 1-Mword time-domain transients and 0.05 sec ion accumulation. […] Desalted protein samples were usually measured at a concentration of 40 μM in 10 mM ammonium acetate buffer. Typically, 100 co-added 256-kword time-domain transients were recorded and processed to 512-kword data prior to fast Fourier transform and frequency to mass conversion. The wild-type Equ c 1 allergen and the Equ c 1 mutants were measured using the same instrumental parameters, in order to avoid any bias between the protein samples. […]

B1: recombinant wild-type Equ c 1 allergen (other)
chain: QQEENSDVAIRNFDISKISGEWYSIFLASDVKEKIEENGSMRVFVDVIRALDNSSLYAEYQTKVNGECTEFPMVFDKTEEDGVYSLNYDGYNVFRISEFENDEHIILYLVNFDKDRPFQLFEFYAREPDVSPEIKEEFVKIVQKRGIVKENIIDLTKIDRCFQLRGNGVAQA
notes: Reported to exist mainly as a dimer at 40 uM; also called rEqu c 1 wt; wt rEqu c 1
- binding result: binds
